Laboratory results from patent publication US20210000909A1.

Molecular target: PDZ1/2 domain (UniProt P78352)
Sequence (P78352 61-249 limits assumed): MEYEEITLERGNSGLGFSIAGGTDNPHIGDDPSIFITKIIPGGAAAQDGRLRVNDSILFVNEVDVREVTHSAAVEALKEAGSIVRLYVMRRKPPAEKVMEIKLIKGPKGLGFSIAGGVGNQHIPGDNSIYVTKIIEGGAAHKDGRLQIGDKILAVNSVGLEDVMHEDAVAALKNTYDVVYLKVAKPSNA

Work on control chimeric peptide NA-1 yielded a Kd of 75.3 nM.
